This experiment concerns the target T1, CD147^+ A549 cells (Homo sapiens, UniProt P35613).
T1 construct: endogenous in cells; host or cells: A549 (human lung cancer cell line)
T1 sequence (P35613 22-269 isoform P35613-2 limits assumed): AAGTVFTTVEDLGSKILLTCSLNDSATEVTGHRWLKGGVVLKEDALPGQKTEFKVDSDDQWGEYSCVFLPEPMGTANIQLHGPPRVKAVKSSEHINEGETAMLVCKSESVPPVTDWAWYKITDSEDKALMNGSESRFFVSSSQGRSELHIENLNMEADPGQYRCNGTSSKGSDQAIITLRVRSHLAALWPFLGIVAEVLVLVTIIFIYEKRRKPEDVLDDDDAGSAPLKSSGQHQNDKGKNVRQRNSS
The experiment can be described thus: Antigen-binding activity by flow cytometry. The method, then:
The antibody concentration is 0.001 μg/mL, 0.01 μg/mL, 0.1 μg/mL, 1 μg/ml and 10 μg/mL, respectively.
A549 cells (10^6 cells) were incubated with the Metuzumab (HcHAb18) and cHAb18 antibody, respectively, in PBS with 0.1% BSA at 4° C. for 1 h. After three washes in PBS with 0.1% BSA, cells were incubated with the FITC-conjugated Rabbit anti-Human IgG Fc Secondary Antibody (Pierce) at 4° C. in the dark for 45 min. Cells were then washed three times and suspended in PBS for analysis using a FACS Calibur flow cytometer (BD, New Jersey, U.S.). Relative antigen expression is reported as median fluorescence intensity (MFI).

For the substance “cHAb18: human-mouse chimeric anti-CD147 antibody, variable domains from HAb18, human IgG1 constant domains, fucosylated (CHO K1)”, the “CD147-binding ability, Metuzumab compared with cHAb18” value (FIG. 4) is on record as “similar”. Also, under “FIG. 4, 0.001-10 μg/mL”, the “Binding to CD147^+ A549 cells” value was “bound”.
